Measured values taken from article PMC9723616.

T1: FemX (UniProt Q9EY50 1-336)
T1 sequence: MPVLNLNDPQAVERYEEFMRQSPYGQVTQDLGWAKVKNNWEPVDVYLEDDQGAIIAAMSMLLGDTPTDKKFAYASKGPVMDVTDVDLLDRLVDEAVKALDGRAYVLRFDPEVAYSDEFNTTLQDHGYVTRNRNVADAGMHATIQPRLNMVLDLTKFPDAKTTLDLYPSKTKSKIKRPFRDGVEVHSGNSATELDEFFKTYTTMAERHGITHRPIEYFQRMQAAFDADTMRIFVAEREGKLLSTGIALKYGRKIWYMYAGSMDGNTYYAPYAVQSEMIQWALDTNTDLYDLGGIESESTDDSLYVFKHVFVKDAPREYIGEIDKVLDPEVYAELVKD


Biological target: T1, FemX
Assay: competition

Binder | Ki [nM]
GGGGCCUUAGCUCAGGCUCCACCA (XNA, 2'F-RNA in stem (14 F); dC at penultimate position (pdCpA); 2'-azido-2'-deoxy A76 joined by triazole to UDP-MurNAc-pentapeptide) [compound 17 (2'F-RNA stem peptidyl-helix, 24 nt)] | 0.397 ± 0.107
GGGGCCUUAGCUCAGGCUCCACCA (XNA, 2'F-ANA in stem (14 F); dC at penultimate position (pdCpA); 2'-azido-2'-deoxy A76 joined by triazole to UDP-MurNAc-pentapeptide) [compound 20 (2'F-ANA stem peptidyl-helix, 24 nt)] | 221 ± 10
